Assay: yeast display, Sf9 membrane polyspecificity reagent, FACS + sequencing; frameworks hold sequencing errors
How it was run: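 Synthetic nanobody libraries on Saccharomyces cerevisiae BJ5465 were galactose-induced for 36–48 hours, stained 1 hour at 4 °C with 10% biotinylated, detergent-solubilized Sf9 membrane reagent and enriched on streptavidin microbeads. FACS then separated cells into low and high (top ~1%) gates by anti-HA (expression) and streptavidin (reagent binding) fluorescence. Genes were colony-PCR amplified, MiSeq 2 × 250 sequenced and CDR-length filtered. A clone's polyreactivity label is that of its gate of origin.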

| Sequence | polyreactivity (PSR sort gate) |
| --- | --- |
| QVQLVESAGGLVQAGGSIRLSCAASGNIFFVYDMGWYRQAPGKERELVAAISWSGGSTYADSVKGRFTISRDNAKNTVYLQMNSLKPEDTAVYYWAASYGVYWYSFWYHVAWLDYWGQGTQVTVSS | low polyreactivity |
| QVQLVESGGGLVQEGGSLRLSCAASGSTFYWYAMGWYRQAPGKERELVATISNTGRTYYADSVKGRFTISRDNAKNTVYLQMNSLKPEDTAVYDCAAKRSQRWRYDYWGQGTQVTVSS | high polyreactivity |
| QVQLVESGGGLVQAGGILRLSCAASGFIFWYNAMGWYRQAPGKERELVARINIGGTTSYADSVKGRFTISRDNAKNNVYLQMNSLKREDTAVYYCNAVQGRQYDYWGQGTQVNVSS | low polyreactivity |
| QVQLVESGGGLVQAGGSLRLSCAASGRIFTYYAMGWYRQAPGKERELVATICSSGSTNYADSVKGRFTISRDNAKNTVYLQMNSLKPEDTAVYYCAKKTRRRYDVKYDYWGQGTQVTVSS | low polyreactivity |
| QVQLVESGGGLVQAGGSLRLSCAASGSIFYNYAMGWYRQAPGKERELVAAIKRSGGITFYADSVKGRFTISRDNAKNTVYLQMNSLKPEVTAVYYCAADRSFGHHFWYTGKRYDYWGQGTKVTVSS | low polyreactivity |
| QVHLVESGGGLVQAGGSLRLSSSASGIIFGRNTMGWYRQAPGKEREMVAAITSSGITYYADSVKGRFTISRDNAKNTVYFQMNSLKPEDTAVYYCYSDWTYADPNEYGYWGQGTQVTVSS | low polyreactivity |
| QVQLVESGGGLVQAGGSLRLSCAAYGIIFSYNVMGWYRQAPGKEREYVAAITRSGGSTYYADSVKGRFTISRDNAKNTVYLQMNSLKPEDTAVYYCAATTWSGPSRYYDWGQGTQVTVSS | high polyreactivity |
| QVQLVESRGGLVQAGGSLRLSCAASGRIFGTNAMGWYRQAPGRERELVATITRGGGNTYYADSVKGRFTISRDIAKNTVYLQMNSLKPEDTAVYYCAAKFHRFAWYSHYDYWGHGTQVTVSS | low polyreactivity |
| QVQLVESGGGLVQAGGSLRLSCAASGRTFTYNTMGWYRQETGKQRELVAAISSSGGSTYYADSVKGRFTISRDNAKNTVYLQMNSLKPEDTAVYYCAKRYFSSSRYYYWGQGTQVTVSS | high polyreactivity |
| QVQLVESGGGLVQAGGSLRLSCAASGRTFRIYAMGWYLQAPGKERELVAPISGRGGNTYYADSVKGRFTISRDNAKNTVYLHMNSLKPEDTAVYYCAADDATAYRVDGFKYDYWGQGTLVTVSS | high polyreactivity |
| QVQLEESGGGLVQAGGSLRLSCAASGIIFRLYAMGRYRQAPGKERELVAAISSGGSTNYADSVKGRFTISRDNAKNTVYLQMNSLKPEDTAVYYCAAGKAHNYDYWGQGTQVTVSS | low polyreactivity |
| QVQLVESGGGIVQAGGSLRLICAASGFIFVTYAMGWYRQAPGKETELVAAITNSGGTTYYADSVKGRFTISRDNAKNTVYLQMNSLKPEDTAVYYCAADVWTPYLISLKSGYDYWGQGTQVTVSS | low polyreactivity |
| QVQLVESGGGLVQAGGSLRLSCAASGSISVLNAMGWYRQAPGKERELVAAISRSGTRTYYADSVKGRFTLSRDNAKNTVYLQMNSLKPEDTAVYYCNALHRARLFGHYPYESWGQGTQVTVSS | high polyreactivity |
| QVQLVESGGGLVQAGGSLRLSCAASGRTFYYNAMGWYRQAPGKERELVAVITRGSTYYADSVKGRFSISRDNAKNTVYLQMKSLKPEDTAVYYCCKYRHYHRGYDYWGQGTQVTVSS | high polyreactivity |
| QVQLVESGGGLVQAGGSLRLSCAASGFTFDSNAMGWYRQAPGKERELVAAISASGDSTYYADSVKGRFTISRDNAKNTVYLQMNSLKPEDTAVYYCAADRFYGGWRFDHWGQGTQVTVSS | low polyreactivity |
| QVQLVESGGGLVQAGGSLRLSCADSVIIFRVYVMGCYRQAPGKERELVDAISTSGGRTSYADSVKGRFTISRDNAKNTVYLQMNSLKPEDTAVYYCAARPLYSYSQWGYGYWGQGTQVTVSS | high polyreactivity |
| QVQLVESGRGLVQAGGSLRLSCAASGRTFAVSTMGWYRKAAGQERELVATISWSGGSTYYADSVKGRFTISRDNAKNTVYLQMNSLKPEDTAVYFCNADFTWGSYERDYWGQGTQGTVSS | high polyreactivity |

From the nanobody polyreactivity screen of Harvey et al. (2022)
